Measurements taken from patent US20240382586A1 (TAKIS S R L, published 2024).

How the values were obtained:
[1] = target: SARS-CoV-2 spike, variant N501Y (B.1.1.7, British) (on virus or pseudovirus) (SARS-CoV-2, UniProt P0DTC2 14-1273); test: cell-based or functional assay
[2] = target: SARS-CoV-2 spike, African variant B.1.351 (on pseudovirus) (SARS-CoV-2); test: cell-based or functional assay

B1: 9-8F2-B11 (mouse) (antibody, V domains shown)
VH: EVQLQQSGAELVKPGASVKLSCTASGFNIKETYVHWVKQRPEQGLEWIGRIDPAIGDSEYDPKFQGKATVTADTSSNTAYLQLSRLTSEDTAVYYCARTWGPFFDFWGQGTTLTVSS
VL: DVVMTQTPLSLPVSLGDQASISCRSSQSLVHSHGNTFLHWYLQKPGQSPKVLIYKVSSRFSGVPDRFSGSGAGTDFTLKISRVEAEDLGVYFCSQSTHVPYTFGGGTKLEIK
[1]
  IC50 (ng/ml), pseudovirus neutralisation, British B1.1.7: 7.7 ng/mL

B2: humanised 9-8F2-B11 (VH3VL3) (antibody, V domains shown)
VH: QVQLVQSGAEVKKPGASVKVSCKASGFNIKETYVHWVRQAPGQGLEWMGRIDPAIGDSEYAQKFQGRVTMTRDTSISTAYMELSRLRSDDTAVYYCARTWGPFFDFWGQGTLVTVSS
VL: DIVMTQTPLSLSVTPGQPASISCKSSQSLLHSHGNTFLHWYLQKPGQSPQVLIYKVSSRFSGVPDRFSGSGSGTDFTLKISRVEAEDVGVYYCSQSTHVPYTFGQGTKLEIK
notes: also called 9-8F2-B11 humanised
[2]
  IC50 (ng/ml), pseudovirus neutralisation, African B1.1.351: 12000 ng/mL
[1]
  IC50 (ng/ml), pseudovirus neutralisation, British B1.1.7: 11 ng/mL

B3: 9-2H7-D7 (mouse) (antibody, V domains shown)
VH: EVQLQQSGPELVKPGASVTISCKTSGYTFTEYTMYWVKQSHGKSLEWIGGINPYIGDTSYNQNFKGKATLTVDKSSSTAYMELRSLTSEDSAVYYCARDGYPDYSAMDFWGQGTSVTVSS
VL: DIVMSQSPSSLAVSVGEKVTMNCKSSQNLLYSSNQKNYLAWYQQKPGQSPKLLIYWASTRESGVPDRFTGSGSGTDFTLTISSVKAEDLAVYSCQQYYTYPWTFGGGTKLEIK
[1]
  IC50 (ng/ml), pseudovirus neutralisation, British B1.1.7: 40 ng/mL

B4: 9-2H7-D7 chimera (antibody, V domains shown)
VH: EVQLQQSGPELVKPGASVTISCKTSGYTFTEYTMYWVKQSHGKSLEWIGGINPYIGDTSYNQNFKGKATLTVDKSSSTAYMELRSLTSEDSAVYYCARDGYPDYSAMDFWGQGTSVTVSS
VL: DIVMSQSPSSLAVSVGEKVTMNCKSSQNLLYSSNQKNYLAWYQQKPGQSPKLLIYWASTRESGVPDRFTGSGSGTDFTLTISSVKAEDLAVYSCQQYYTYPWTFGGGTKLEIK
[2]
  IC50 (ng/ml), pseudovirus neutralisation, African B1.1.351: 21 ng/mL
[1]
  IC50 (ng/ml), pseudovirus neutralisation, British B1.1.7: 11 ng/mL

B5: 9-7A4-C2 (mouse) (antibody, V domains shown)
VH: EVQLQQSGPELVKPGASVKISCKTSGYTFTEYTMYWVKQSHGKSLEWIGGINPNNGDSSYIQKFKGKATLTVDESSSTAYMELRSLTSEDSAVYYCARDGYPNSYAMDYWGQGTSVTVSS
VL: DIVMSQSPSSLAVSVGDKVTMSCKSSQSLLYSTNQKNYLAWYQQKPGQSPKLLIYWASTRESGVPDRFTGSGSGTDFTLTIGSVRPEDLAVYYCQQYYSYPWTFGGGTKLEIK
[2]
  IC50 (ng/ml), pseudovirus neutralisation, African B1.1.351: 20 ng/mL
[1]
  IC50 (ng/ml), pseudovirus neutralisation, British B1.1.7: 18 ng/mL
